According to IntAct's records for PubMed 20956295:

B1: Tumor necrosis factor receptor superfamily member 6 (Homo sapiens), P25445-1 (parent)
chain: MLGIWTLLPLVLTSVARLSSKSVNAQVTDINSKGLELRKTVTTVETQNLEGLHHDGQFCHKPCPPGERKARDCTVNGDEPDCVPCQEGKEYTDKAHFSSKCRRCRLCDEGHGLEVEINCTRTQNTKCRCKPNFFCNSTVCEHCDPCTKCEHGIIKECTLTSNTKCKEEGSRSNLGWLCLLLLPIPLIVWVKRKEVQKTCRKHRKENQGSHESPTLNPETVAINLSDVDLSKYITTIAGVMTLSQVKGFVRKNGVNEAKIDEIKNDNVQDTAEQKVQLLRNWHQLHGKKEAYDTLIKDLKKANLCTLAEKIQTIILKDITSDSENSNFRNEIQSLV

Variants of: B1
Conditions: with cav1_human CAV1, Q03135
Chain of cav1_human CAV1, Q03135 (Q03135 whole entry): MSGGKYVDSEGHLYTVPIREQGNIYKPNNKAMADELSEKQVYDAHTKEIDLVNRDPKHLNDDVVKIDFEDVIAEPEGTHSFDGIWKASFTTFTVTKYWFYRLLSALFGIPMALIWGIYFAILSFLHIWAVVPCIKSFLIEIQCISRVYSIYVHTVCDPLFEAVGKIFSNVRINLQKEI

**Q.** Which “effect of a mutation on the interaction” value does the source give for C199S here?
**A.** disrupting interaction
